Assay [1] addresses full-length β2-microglobulin (UniProt P61769). The assay is described as follows: cross-linking; BS3-d0/d4 1:1, 25 °C, 1 h; gel electrophoresis (NuPAGE); bands digested in-gel with trypsin; LC-MS/MS.
Assay [2] has the same target. The assay is described as follows: native MS; ion mobility MS, 30 μM protein, 100 mM ammonium acetate, pH 5 (data not shown).
For assay [3] the target is unchanged. Put plainly: native MS; ion mobility MS, 15 μM protein, 100 mM ammonium acetate, pH 5.

The source of these data is article PMC4813486.

As usually defined, the stoichiometry N is a count of units in the complex or per binding partner.

“And” between values parts separate entries of the source, which are not always exact repeats. Equal entries are not always repeated.

On to “full-length β2-microglobulin (from UniProt P61769 21-119) (natural protein)”, for which the stoichiometry N in assay [1] is 2 and 3 and 4; in assay [2], 3 and 4; in assay [3], 2.
